Laboratory results as given in patent publication US20210171621A1 (SUNSHINE GUOJIAN PHARMACEUTICAL SHANGHAI, published 2021).
Substitutions are numbered along the chain they refer to.

T1: guinea pig IL-5 with His-tag (guinea pig, UniProt O08987 20-135)
T1 construct: Expressed transiently in HEK293E and captured from the supernatant by a murine anti-His antibody; not shown: His-tag
T1 sequence (looked up): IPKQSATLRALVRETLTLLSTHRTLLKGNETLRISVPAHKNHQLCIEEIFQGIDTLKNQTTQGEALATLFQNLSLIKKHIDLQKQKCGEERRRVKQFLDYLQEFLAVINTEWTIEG

T2: rat IL-5 with His-tag (rat, UniProt Q08125 20-132)
T2 construct: Expressed transiently in HEK293E and captured from the supernatant by a murine anti-His antibody; not shown: His-tag
T2 sequence (looked up): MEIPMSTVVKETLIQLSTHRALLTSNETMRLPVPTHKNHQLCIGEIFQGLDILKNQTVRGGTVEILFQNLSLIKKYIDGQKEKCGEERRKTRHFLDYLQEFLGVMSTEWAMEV

T3: rabbit IL-5 with His-tag (rabbit, UniProt G1SL79 20-134)
T3 construct: Expressed transiently in HEK293E and captured from the supernatant by a murine anti-His antibody
T3 sequence: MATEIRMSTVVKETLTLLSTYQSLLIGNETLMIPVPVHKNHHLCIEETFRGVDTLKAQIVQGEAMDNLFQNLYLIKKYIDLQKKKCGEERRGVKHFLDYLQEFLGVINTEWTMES

T4: mouse IL-5 with His-tag (mouse, UniProt P04401 21-133)
T4 construct: Expressed transiently in HEK293E and captured from the supernatant by a murine anti-His antibody; not shown: His-tag
T4 sequence (looked up): T2 sequence (looked up) with I14T, T18A, I65M, G79R, K90R, H93Q, V113G

B1: humanized antibody No. 4-6 (4-6-Humanized) (antibody, human IgG1, kappa, V domains shown)
VH: QVQLVQSGAEVKKPGASVKVSCKASGYTFTNHHINWVRQAPGQGLEWIGYINPYNDYSRYNQKFKGRATLTVDKSTSTAYMELSSLRSEDTAVYYCARDYGNFWYFDVWGQGTLVTVSS
VL: DIQMTQSPSSLSASVGDRVTITCKASQDINSYLSWIQQKPGKAPKTLIHRADRLIDGVPSRFSGSGSGQDFTLTISSLQPEDFATYYCLQYDDFPYTFGQGTKVEIKR
notes: Human IgG1; Made in HEK293; also called 4-6-Humanized (293); 4-6-Humanized (CHO)
B2: chimeric antibody No. 4-6 (4-6-Chimeric) (antibody, human IgG1, V domains shown)
VH: QVQLQQSGAELVRPGASVKISCKAFGYTFTNHHINWVQQRPGQGLDWIGYINPYNDYSRYNQKFKGKATLTVDKSSSTAYMELSGLTSEDSAVYYCARDYGNFWYFDVWGAGTTVTVSS
VL: DIKMTQSPSSMYASLGERVTITCKASQDINSYLSWIQQKPGKSPKTLIHRADRLIDGVPSRFSGSGSGQDFSLTISSLEYEDMGIYYCLQYDDFPYTFGGGTKLEIK
B3: hu39D10 (antibody, V domains shown)
VH: EVQLVESGGGLVQPGGSLRLSCAVSGLSLTSNSVNWIRQAPGKGLEWVGLIWSNGDTDYNSAIKSRFTISRDTSKSTVYLQMNSLRAEDTAVYYCAREYYGYFDYWGQGTLVTVSS
VL: DIQMTQSPSSLSASVGDRVTITCLASEGISSYLAWYQQKPGKAPKLLIYGANSLQTGVPSRFSGSGSATDYTLTISSLQPEDFATYYCQQSYKFPNTFGQGTKVEVKR
B4: control antibody 4-4-Humanized (antibody, human IgG1, V domains shown)
VH: QVQLVQSGAEVKKPGASVKVSCKASGYTFTDYYINWLRQAPGQGLEWIGWIYPGSGNTKYSEKFKDRATLTVDTSTSTVYMELSSLRSEDTAVYVCVRDGYYWYFDVWGQGTLVTVSS
VL: DIVMTQSPDSLAVSLGERATINCKSSQSLLNNYNQKNYLAWYQQKPGQPPKLLVYFTSTRESGVPDRFSGSGSGTDFTLTISSLQAEDVAVYFCQQHYSPPFTFGQGTKVEIK

How the values were obtained:
[1] = target: T1, guinea pig IL-5 with His-tag; test: ELISA, His-tagged IL-5 captured by anti-His antibody; guinea pig
Source text: (§1) IL-5 genes of rat, mouse, guinea pig and rabbit were synthesized and constructed into the pTT5 transient vector, respectively (All the sequences of the above genes are from http://www.uniprot.org, the mouse number is P04401, the rat number is Q08125, the guinea pig number is O08987, and the rabbit number is G1SL79), and then transiently expressed in HEK293E.

[2] = target: T2, rat IL-5 with His-tag; test: ELISA, His-tagged IL-5 captured by anti-His antibody; rat
Source text: as §1

[3] = target: T3, rabbit IL-5 with His-tag; test: ELISA, His-tagged IL-5 captured by anti-His antibody
Source text: as §1

[4] = target: T4, mouse IL-5 with His-tag; test: ELISA, His-tagged IL-5 captured by anti-His antibody; mouse
Source text: as §1

[5] = target: T5, human IL-5 protein (purchased from Beijing Yiqiao Shenzhou) (human, UniProt P05113 20-134); test: cell-based or functional assay
[6] = target: T5, human IL-5 protein (purchased from …); test: SPR Biacore T200, antibody captured on Protein A/G, IL-5 as analyte
Source text: The specific experimental method was as follows: A CM5 sensor chip (GE healthcare) was activated with a Amine Coupling Kit (GE healthcare) and the Protein A/G fusion protein (Thermo Pierce) was immobilized on the chip with an lable amount of 2000 RU. FC3 (Flow cell 3) was a reference channel, and FC4 (Flow cell 4) was a sample channel.

[7] = target: T6, human IL-5-hFc (human, UniProt P05113 20-134); test: competition ELISA: IL-5-hFc coated, biotinylated IL-5RA-ECD-hFc as competitor
T6 construct: not shown: Fc segment of human IgG1
Protocol: (§2) After incubation for a period of time, the plate was washed and Streptavidin-HRP was added finally for color development detection.

[8] = target: T7, human IL-5-His-tag antigen (human, UniProt P05113 20-134); test: ELISA, His-tagged IL-5 captured by anti-His antibody; human
T7 construct: Made in HEK293

[9] = target: T8, IL-5 mutant 96F to Alanine, with His-tag (human, UniProt P05113 20-134); test: capture ELISA: His-tagged IL-5 from HEK293E supernatant captured with murine anti-His antibody, detected with Goat-anti-Human-Fc-Specific-HRP; mean of four wells
T8 construct: Expressed transiently in HEK293E; used from the supernatant, captured by a murine anti-His antibody; not shown: His-tag

[10] = target: T9, IL-5 mutant 86C to Alanine, with His-tag (human, UniProt P05113 20-134); test: as above
T9 construct: Expressed transiently in HEK293E; used from the supernatant, captured by a murine anti-His antibody; not shown: His-tag

[11] = target: T10, IL-5 mutant 104L to Alanine, with His-tag (human, UniProt P05113 20-134); test: as above
T10 construct: Expressed transiently in HEK293E; used from the supernatant, captured by a murine anti-His antibody; not shown: His-tag

[12] = target: T11, IL-5 mutant 90R to Alanine, with His-tag (human, UniProt P05113 20-134); test: as above
T11 construct: Expressed transiently in HEK293E; used from the supernatant, captured by a murine anti-His antibody; not shown: His-tag

[13] = target: T12, IL-5 mutant 91R to Alanine, with His-tag (human, UniProt P05113 20-134); test: as above
T12 construct: Expressed transiently in HEK293E; used from the supernatant, captured by a murine anti-His antibody; not shown: His-tag

[14] = target: T6, human IL-5-hFc; test: blocking ELISA: plate coated with IL-5-hFc, antibody dilutions mixed with biotinylated IL-5RA-ECD-hFc (the blocked ligand), Streptavidin-HRP, OD450
Protocol: as §2

Binder	EC50 [1]	EC50 [2]	EC50 [4]	Kd [6]	koff [6]	kon [6]	other results
B1	0.0558 µg/mL	2.13 µg/mL	0.0521 µg/mL	–	–	–	binding result [3]: no binding
B2	–	–	–	0.013 nM	0.000196 s⁻¹	1.51e+07 M⁻¹ s⁻¹	IC50 for inhibiting IL-5-induced TF-1 cell proliferation (4-6-Chimeric) [5]: 0.0289 µg/mL; IC50 [7]: 0.98 µg/mL
B3	0.0531 µg/mL	0.132 µg/mL	0.0618 µg/mL	0.0136 nM	0.000156 s⁻¹	1.15e+07 M⁻¹ s⁻¹	IC50 for inhibiting IL-5-induced TF-1 cell proliferation (hu39D10) [5]: 0.0476 µg/mL; EC50 [8]: 0.078 µg/mL; OD450 [9]: 0.456; OD450 [10]: 0.13; OD450 [11]: 0.11; OD450 [12]: 0.499; OD450 [13]: 0.171
B4	–	–	–	–	–	–	IC50 (read off the curve) [14]: ~4 µg/mL
